56 variants from PMC11969024 (2025) can be followed below.

First the molecules themselves.
B1: peptide HD2 (from tick evasin EVA4) / CCL19 (biotinylated, synthetic) (parent complex)
chain 1: EEDDYTAYAPLTCYFT
chain 2: GTNDAEDCCLSVTQKPIPGYIVRNFHYLLIKDGCRVPAVVFTTLRGRQLCAPPDQPWVERIIQRLQRTSAKMKRRSS
B2: peptide HD2 (from tick evasin EVA4) / CCL17 (biotinylated, synthetic) (parent complex)
chain 1: EEDDYTAYAPLTCYFT
chain 2: ARGTNVGRECCLEYFKGAIPLRKLKTWYQTSEDCSRDAIVFVTVQGRAICSDPNNKRVKNAVKYLQSLERS

One experiment covers variants of B1.
Regarding chain 1 ETDDYTAYAPLTCYFT [chain 1 E2T], the enrichment is -1.16 log2 (difference from the parental peptide). For the variant chain 1 ENDDYTAYAPLTCYFT [chain 1 E2N], the enrichment was -1.08 log2 (difference from the parental peptide).

As for chain 1 EVDDYTAYAPLTCYFT [chain 1 E2V], the enrichment was 0.565 log2 (difference from the parental peptide). Still for that read-out and setting: the same measure for chain 1 EDDDYTAYAPLTCYFT [chain 1 E2D]: 2.11 log2 (difference from the parental peptide); for chain 1 EMDDYTAYAPLTCYFT [chain 1 E2M]: 0.392 log2 (difference from the parental peptide); for chain 1 EEDDYTAYAPITCYFT [chain 1 L11I]: 1.76 log2 (difference from the parental peptide). Still for that read-out and setting: the figure for chain 1 EEDDYTAYAPWTCYFT [chain 1 L11W] is -0.0314 log2 (difference from the parental peptide); for chain 1 EEDDYTAYAPRTCYFT [chain 1 L11R] it is -3.8 log2 (difference from the parental peptide). For chain 1 EEDDYTAYAPLTCYFG [chain 1 T16G], the enrichment is -4.08 log2 (difference from the parental peptide).

As for chain 1 EEDDYTAYAPLTCYFA [chain 1 T16A], the enrichment is -1.59 log2 (difference from the parental peptide).

Take chain 1 EEDDYTAYAPLTCYFD [chain 1 T16D]: the enrichment was -1.5 log2 (difference from the parental peptide). Same read-out and setting: the same measure for chain 1 EEDDYTAYAPLTCYFM [chain 1 T16M]: 0.0438 log2 (difference from the parental peptide); for chain 1 EEDDYTAYAPLTCYTT [chain 1 F15T]: -3.97 log2 (difference from the parental peptide); for chain 1 EEDDYTAYAPLTCYKT [chain 1 F15K]: -4.98 log2 (difference from the parental peptide). Still for that read-out and setting: the figure for chain 1 EEDDYTAYAPLTCYRT [chain 1 F15R] is -6.02 log2 (difference from the parental peptide).

As to chain 1 EEDDYTAYAPLTCYHT [chain 1 F15H], the enrichment is -3.96 log2 (difference from the parental peptide). Still for that read-out and setting: the figure for chain 1 EEDDYTAYAPLTCKFT [chain 1 Y14K] is -5.55 log2 (difference from the parental peptide).

As for chain 1 EEDDYTAYAPLTCRFT [chain 1 Y14R], the enrichment is -7.07 log2 (difference from the parental peptide). Same read-out and setting: the same measure for chain 1 EEDDYTAYAPLTCLFT [chain 1 Y14L]: -9.46 log2 (difference from the parental peptide). Still for that read-out and setting: the same measure for chain 1 EEDDYCAYAPLTCYFT [chain 1 T6C]: -7.51 log2 (difference from the parental peptide); for chain 1 EEDDYRAYAPLTCYFT [chain 1 T6R]: -3.39 log2 (difference from the parental peptide).

For the variant chain 1 EEDDYWAYAPLTCYFT [chain 1 T6W], the enrichment is 7.55 log2 (difference from the parental peptide). The same measure, in the same setting: the figure for chain 1 EEDDYSAYAPLTCYFT [chain 1 T6S] is 0.379 log2 (difference from the parental peptide); for chain 1 EEDDYMAYAPLTCYFT [chain 1 T6M] it is 1.73 log2 (difference from the parental peptide). Same read-out and setting: the same measure for chain 1 SEDDYTAYAPLTCYFT [chain 1 E1S]: -6.42 log2 (difference from the parental peptide); for chain 1 KEDDYTAYAPLTCYFT [chain 1 E1K]: -4.04 log2 (difference from the parental peptide).

Turning to chain 1 DEDDYTAYAPLTCYFT [chain 1 E1D], the enrichment is 0.567 log2 (difference from the parental peptide). Same read-out and setting: the figure for chain 1 YEDDYTAYAPLTCYFT [chain 1 E1Y] is 1.7 log2 (difference from the parental peptide); for chain 1 LEDDYTAYAPLTCYFT [chain 1 E1L] it is -2.92 log2 (difference from the parental peptide). Take chain 1 AEDDYTAYAPLTCYFT [chain 1 E1A]: the enrichment is -5.3 log2 (difference from the parental peptide). Regarding chain 1 PEDDYTAYAPLTCYFT [chain 1 E1P], the enrichment was -6.51 log2 (difference from the parental peptide). As for chain 1 REDDYTAYAPLTCYFT [chain 1 E1R], the enrichment was -6.95 log2 (difference from the parental peptide).

For chain 1 MEDDYTAYAPLTCYFT [chain 1 E1M], the enrichment is -5.78 log2 (difference from the parental peptide). Still for that read-out and setting: the same measure for chain 1 EEDDYTAYAPLHCYFT [chain 1 T12H]: 0.389 log2 (difference from the parental peptide); for chain 1 EEDDYTAWAPLTCYFT [chain 1 Y8W]: 0.479 log2 (difference from the parental peptide); for chain 1 EEDDYTAFAPLTCYFT [chain 1 Y8F]: -1.35 log2 (difference from the parental peptide). On to chain 1 EEDDYTAYIPLTCYFT [chain 1 A9I], for which the enrichment was -3.88 log2 (difference from the parental peptide). For chain 1 EEDDYTAYSPLTCYFT [chain 1 A9S], the enrichment was -6.72 log2 (difference from the parental peptide).

Consider chain 1 EEDDYTAYNPLTCYFT [chain 1 A9N], for which the enrichment was -3.82 log2 (difference from the parental peptide). The same measure, in the same setting: the figure for chain 1 EEDDYTAYCPLTCYFT [chain 1 A9C] is -8.06 log2 (difference from the parental peptide). On the same count and under the same terms, the same measure for chain 1 EEDDYTAYRPLTCYFT [chain 1 A9R]: -5.91 log2 (difference from the parental peptide); for chain 1 EEDDYTDYAPLTCYFT [chain 1 A7D]: 2 log2 (difference from the parental peptide).

Turning to chain 1 EEDDYTEYAPLTCYFT [chain 1 A7E], the enrichment was -0.397 log2 (difference from the parental peptide). Consider chain 1 EEDDYTGYAPLTCYFT [chain 1 A7G], for which the enrichment is -5.86 log2 (difference from the parental peptide). On the same count and under the same terms, the figure for chain 1 EEFDYTAYAPLTCYFT [chain 1 D3F] is -3.58 log2 (difference from the parental peptide); for chain 1 EEGDYTAYAPLTCYFT [chain 1 D3G] it is -6.43 log2 (difference from the parental peptide); for chain 1 EELDYTAYAPLTCYFT [chain 1 D3L] it is -2.95 log2 (difference from the parental peptide).

Take chain 1 EEYDYTAYAPLTCYFT [chain 1 D3Y]: the enrichment is -0.734 log2 (difference from the parental peptide). Same read-out and setting: the same measure for chain 1 EEDWYTAYAPLTCYFT [chain 1 D4W]: 0.498 log2 (difference from the parental peptide).

Turning to chain 1 EEDLYTAYAPLTCYFT [chain 1 D4L], the enrichment is -2.61 log2 (difference from the parental peptide). The same measure, in the same setting: the figure for chain 1 EEDSYTAYAPLTCYFT [chain 1 D4S] is -6.25 log2 (difference from the parental peptide); for chain 1 EEDDYTAYAGLTCYFT [chain 1 P10G] it is -5.73 log2 (difference from the parental peptide).

In another experiment the parent is B2.
As for chain 1 EEDDYTAYAPCTCYFT [chain 1 L11C], the enrichment is 0.521 log2 (difference from the parental peptide). Still for that read-out and setting: the figure for chain 1 EEDDYTAYAPMTCYFT [chain 1 L11M] is 3.11 log2 (difference from the parental peptide). On the same count and under the same terms, the figure for chain 1 EEDDYTAYAPGTCYFT [chain 1 L11G] is -8.35 log2 (difference from the parental peptide); for chain 1 EEDDYTAYAPLTCFFT [chain 1 Y14F] it is -0.272 log2 (difference from the parental peptide).
